For one assay, the system named is tau. Put plainly: Western blot of mouse brain homogenates (WT, L66+/+, L1+/+). The following applies: 20 μg brain homogenate protein, 5-month-old WT, L1+/+ mice. As to the method: Protein equivalent to 20 μg from each brain extract was separated using 4-20% bis-tris gels and run in 1×MES buffer. […] A clear band is visible in the lanes containing L66^+/+ samples, but no other bands are detectable (WT or L1^+/+). […] Once again, a band having relative mobility of 65 kDa is visible in the L66 sample with no other reactive bands present.
This band most likely corresponds to endogenous mouse tau which is of a similar size. In the L66^+/+ samples, a second band running at approximately 68 kDa is also detected. The presence of numerous other bands indicates proteolytic truncation of tau within brain homogenates.

The target of a further assay is T1, dGAE aggregates (Homo sapiens, UniProt P10636).
T1 construct: host or cells: aggregated in house: 100 μM dGAE with DTT, 700 rpm, 37 °C, 24 h
Put plainly: Sandwich ELISA LoD for SDS Triton X-100 treated dGAE aggregates. In kind it is binding. The settings on record: label = detection scAb. As to the method:
For aggregation, 1000 μL 100 μM dGAE+10 μL 10 mM DTT was added to a ‘LoBind’ microfuge tubes and agitated at 700 RPM/37° C. for 24 hours. Resulting sample centrifuged at 17,000×g/4° C. for 60 min and supernatant discarded to remove left over monomer. Pellet resuspended in half the original volume for future experiments and hereafter referred to as ‘aggregates’. 1 μl of aggregates was added to 1 ml of PBS and SDS was added to a final concentration of 1% (w/v). This was left to incubate on lab bench for 1 h with gentle agitation every 15 minutes. In order to neutralise the SDS effect on ELISA, Triton X-100 added to a final concentration of 3% (v/v) and mixed gently by pipetting to prevent any bubble formation. 200 μl added of this mix was to the first well of an ELISA plate coated with 1 μg/ml S1D12 mAb and blocked with 2% MPBS. Similarly aggregates treated with only SDS or Triton X-100, untreated aggregates, dGAE monomers treated with only SDS or SDS+Titon X-100 were also added to designated wells as controls. All samples were then double diluted across the plate in final volumes of 100 μl. The final column was left with no protein to act as a blank. This was allowed to stand at room temperature for 1 hour followed by the addition of detection scAb-S1G2 at 10 μg/ml. Anti-HuCk HRP labelled secondary antibody was added as described previously and ELISA data generated was represented using the graph below. In addition, limits of detection (LoD) of various core binding antibody pairing for SDS Triton X-100 treated dGAE aggregates were calculated using the above describe ELISA method and substituting capture mAbs and detection scAbs as shown in Table 30.

The next assay addresses dGA (Homo sapiens, UniProt P10636). As to the kind of experiment: Biacore X100 SPR binding kinetics of anti-tau scAbs (scAb captured via HuCk), analyte dGA. The settings on record: lead scAbs; for ka: Table 24; for dissociation rate constant (kd): Table 24, dissociation rate. On the procedure: Surface plasmon resonance (SPR) is widely regarded as the gold standard for real time measurement of protein-protein interactions such as antibody binding. All SPR experiments were carried out using a Biacore X100 machine and HBS EP+ running buffer (GE Healthcare). A ‘capture’ method was followed for affinity measurements, where an anti-human constant kappa chain (HuCk) antibody was conjugated to the surface of a CM5 sensor chip using an amine coupling kit and scAb molecules were immobilised via their HuCk domain. Amine coupling is a very common approach for immobilising the ligand to the chip surface. The chip surface has a dextran matrix derivatised with carboxyl groups, which after activation with N-hydroxysuccinimide (NHS) and 1-ethyl-3-(3-dimethylaminopropyl) carbodiimide (EDC), form reactive succinimide esters which allows the covalent capturing of the ligand via any available primary amine groups (e.g. Lysine) on the ligand (in this case anti-HuCk antibody). The capture antibody was diluted 1/100 in 10 mM Sodium acetate buffer pH 5.0 and passed over the activated chip surface for a period of at least 420 s. Final ligand immobilisation levels over 12,000 RU were deemed to be satisfactory.
Following immobilisation, the level of each scAb to be captured was identified using the standard SPR equation with a theoretical RMax of 100 RU. Analyte MW refers to the molecular weight of hT40 or dGA/dGAE molecules, while ligand MW refers to the molecular weight of the scAbs tested. RLis the desired capture level and S refers to the stoichiometric ratio:
The scAb to be tested was added only to flow cell 2 so that flow cell 1 could act as a control to subtract any interaction with the analyte and the chip surface. Both single and multi-cycle runs were utilised using wizards developed in the Biacore X100 control software which are both accepted methods of kinetic analysis (Karlsson, R., et al. Analyzing a kinetic titration series using affinity biosensors (2006) Analytical Biochemistry 349:136-47). The multi-cycle protocol was as follows-Three start-up cycles composed of an initial capture, to the desired level, of the scAb to be tested was performed followed by a 30 s injection of glycine buffer pH 2.0 after each cycle to regenerate the chip surface. The regeneration step removed any captured scAb whilst leaving the capture antibody intact and able to repeat the capture for the next cycle. Following three start-up cycles increasing concentrations (0.15625 nM-100 nM) of the target to be tested were added to the chip surface after the desired scAb capture. The target was added for a 120 s association period and 420 s dissociation period followed by another regeneration, 30 s injection of glycine buffer pH 2.0 in between each cycle.
The single cycle kinetics protocol was similar and utilised the same level of scAb capture. Three start-up cycles were used followed by 5 increasing concentrations of the analyte (6.25 nM-100 nM) for an association period of 120 s followed by a dissociation period of 420 s for each concentration. In single cycle kinetics the regeneration step was performed only after the final analyte concentration was added. Binding responses were analysed in Biacore X100 evaluation software and data fitted to a 1:1 binding model to obtain kinetic and affinity characterisation.

A further assay deals with core region tau. As to the kind of experiment: S1D12 immunotherapy 6-week repeat-dose mouse study, plasma tau by CA4-S1G2 core-core Simoa assay. The format is in vivo. The settings on record: 30 mg/kg i.p. once per week for six weeks, CA4-S1G2 Simoa. As to the method: A total of 12 wildtype, 12 Line 1 and 12 Line 66 female mice were used in this study—Line 1 and Line 66 are transgenic mouse models of tauopathy (Melis et al., 2015). Animals were 2 months old at the beginning of the study. Mice of each genotype were injected intraperitoneally (i.p.) with either vehicle or S1D12 mAb (30 mg/kg), once per week, for six consecutive weeks.
Seven days post final dose, cardiac puncture blood sampling was performed. mice were anaesthetised using an overdose of sodium pentobarbital (i.p.) and blood was collected via cardiac puncture through a Plastipak syringe pre-rinsed with heparinised saline (10 U/mL) and transferred into a plastic vial containing lithium heparin anticoagulant. Blood samples were centrifuged to obtain plasma at 2,000×g for 5 min at 6° C.
In order to monitor the ‘treatment effect’ of S1D12 mAb, plasma tau of vehicle control and antibody treated L66^+/+ mice were assessed via a core-core homebrew Simoa® assay to investigate changes in core tau pools in these mice.

Chain of dGA (P10636 614-707): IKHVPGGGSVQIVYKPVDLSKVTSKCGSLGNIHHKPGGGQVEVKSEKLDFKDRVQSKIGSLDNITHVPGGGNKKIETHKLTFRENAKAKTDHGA
T1 sequence (P10636 614-708): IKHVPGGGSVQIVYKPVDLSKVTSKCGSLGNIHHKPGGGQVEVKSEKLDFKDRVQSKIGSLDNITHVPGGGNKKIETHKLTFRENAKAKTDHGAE

B1: CC7: anti-tau clone, SEQ ID NO: 365 (protein)
scFv: QVQLQESGPSLVKPSQTLSLTCTVSGFSLTSNAVIWVRQAPGKAPEWVALIDVDGDAAYDPALKSRLSITRDTSKSQVSLSLRSVTTEDTAVYYCARDYGSWGYVSDIDYWGPGLLVTVSSEGKSSGASGESKVDDRVVRTQPSSVSGSLGQRVSITCSGSYITGSSVGWFQQVPGSGLKTVIYDNNDRPSGVPDRFSGSKSGDTATLTISSLQAEDEADYYCASYDTSNIGLFGSGTRLTVLG
modifications: CC7 amino acid sequence
As for B1, the Western blot reactivity result with tau is “specificity for human tau”.

B2: CA12: anti-tau clone, SEQ ID NO: 372 (protein)
scFv: QVQLQGSGPSLVKPSQTLSLTCTVSGFSFDSYYVGWVRQAPGKALEWLGNIYSTGRAFYNPALKSRLSITRDTSKSQVSLSVSSVTIEDTALYYCVRGSYYHGGGNGMVDFFDYWSPGLLVTVSSEGKSSGASGESKVDDQVVRTQPSSVSGSLGQRVSITCSGSSSNVGYGNYVGWFQQVPGSAPKLLIYAATSRASGVPDRFSGSRSGNTATLTIDSLQAEDEADYYCSSYQRGNTGVFGSGTRLTVLG
modifications: CA12 amino acid sequence
Take B2: in the assay with dGAE aggregates, the “LoD, S1D12 mAb capture, +SDS Triton dGAE agg.” value was found to be 2 ng/mL and the “LoD, direct immobilisation of dGAE aggregates, +SDS Triton dGAE agg.” value is 16 ng/mL.

B3: NS2A1: anti-tau clone, SEQ ID NO: 220 (protein)
scFv: QVQLQESGPSLVKPSQTLSLTCTVSGFSLSTNSVGWVRQAPGKAPEWVAGIDTDGEEGFNPVLKSRLSITRDTSKSQVSLSLSNVTSEDTAVYYCGRSYRTDGLAYGYVQAIDYWGPGLLVTISSEGKSSGASGESKVDDQSVLTQPSSVSGSPGQTVSITCSGSYIGSSGVGWFQQLPGSGLRTIIVASDGRPSGVPDGFSMSKSGNTATLTISSLQAEDEADYFCGSSDRTQYTGLFGSGTRLTVLG
modifications: NS2A1 amino acid sequence
Consider B3, for which, in the assay with dGA, the ka worked out at 188000 M⁻¹ s⁻¹ and the “dissociation rate constant (kd)” value was 0.00102 s⁻¹.

B4: S1E12: anti-tau clone, SEQ ID NO: 218 (protein)
scFv: QVQLQESGPSLVKPSQTLSLTCTVSGFSLGSNSVGWVRQAPGKAPEWVAGIDTDGEEGYNPALNSRLSITRDTSKSQVSLSLSSVTSEDTAVYYCGRSYRADGLAYGYVQAIDYWGPGLLVTVSSEGKSSGASGESKVDDRVVRTQPSSVSGSLGQRVSITCSGSFIGISSVGWFQQLPGSGLRTIIVASDGRPSGVPDRFSMSKSGNTATLTISSLQAEDEADYFCGSSDRTQYTGVFGSGTRLTVLG
modifications: S1E12 amino acid sequence
As for B4, in the assay with dGA, the ka turned out to be 2.99e+06 M⁻¹ s⁻¹ and the “dissociation rate constant (kd)” value is 0.001627 s⁻¹.

B5: CA9: anti-tau clone, SEQ ID NO: 371 (protein)
scFv: QVQLQESGPSLVKPSQTLSLTCTVSGFSLTSNSVGWVRQAPGKAPEWVAGIDTDGEEGYNPALNSRLSITRDTSKSQVSLSLSSVTSEDTAVYYCGRSYRSDGLAYGYVQAIDYWGPGLLVTVSSEGKSSGASGESKVDDQAVLTQPASVSGSLGQRVSITCSGSFIGISSVGWFQQLPGSGLRTIIVASDGRPSGVPDRFSMSKSGNTATLTISSLQAEDEADYFCGSSDRTQYTGVFGSGTRLTVLG
modifications: CA9 amino acid sequence
For B5, in the assay with dGAE aggregates, the “LoD, S1D12 mAb capture, +SDS Triton dGAE agg.” value came to 4 ng/mL and the “LoD, direct immobilisation of dGAE aggregates, +SDS Triton dGAE agg.” value is 40 ng/mL.

B6: S1D12 mAb: S1D12 reformatted as mAb; heavy chain SEQ ID NO: 445, light chain SEQ ID NO: 446 (antibody)
heavy: QVQLQESGPSLVKPSQTLSLTCTVSGFSLNNNAVGWVRQAPGKVPESLVGCSSDGTCYYNSALKSRLDITRDTSKNQISLSLSSVTTDDAAVYYCTRGHYSIYGYDYLGTIDYWGPGLLVTVSSAKTTAPSVYPLAPVCGDTTGSSVTLGCLVKGYFPEPVTLTWNSGSLSSGVHTFPAVLQSDLYTLSSSVTVTSSTWPSQSITCNVAHPASSTKVDKKIEPRGPTIKPCPPCKCPAPNLLGGPSVFIFPPKIKDVLMISLSPIVTCVVVDVSEDDPDVQISWFVNNVEVHTAQTQTHREDYNSTLRVVSALPIQHQDWMSGKEFKCKVNNKDLPAPIERTISKPKGSVRAPQVYVLPPPEEEMTKKQVTLTCMVTDFMPEDIYVEWTNNGKTELNYKNTEPVLDSDGSYFMYSKLRVEKKNWVERNSYSCSVVHEGLHNHHTTKSFSRTPGK
light: QAVLTQPSSVSGSLGQRVSITCSGSSSNVGGGNSVGWYQHLPGSGLKTIIYDTNSRPSGVPDRFSGSRSGNTATLTINSLQAEDEGDYYCVTGDSTTHDDLVGSGTRLTVLGGQPKSSPSVTLFPPSSEELETNKATLVCTITDFYPGVVTVDWKVDGTPVTQGMETTQPSKQSNNKYMASSYLTLTARAWERHSSYSCQVTHEGHTVEKSLSRADCS
modifications: S1D12 mAB Heavy Chain; S1D12 mAB Light Chain
For the molecule B6, the “plasma tau, wildtype mice with treatment” value in the assay with core region tau was 3.57 (0.22) ng/ml. In addition, the “plasma tau, L1 mice with S1D12 treatment” value in the assay on core region tau (above upper limit of detection) is above 100 ng/mL.

These data come from patent publication US20250147051A1, “METHOD FOR DETECTING A TAU PROTEIN IN A SALIVA SAMPLE” (GTINVENT LIMITED, priority 2022, published 2025).
